# Where “and” joins values, the source holds several entries; their conditions need not be identical. Equal entries are not always repeated.
# B1: recombinant human myoglobin (natural protein)
# chain: MGLSDGEWQLVLNVWGKVEADIPGHGQEVLIRLFKGHPETLEKFDKFKHLKSEDEMKASEDLKKHGATVLTALGGILKKKGHHEAEIKPLAQSHATKHKIPVKYLEFISECIIQVLQSKHPGDFGADAQGAMNKALELFRKDMASNYKELGFQG
# B2: recombinant human neuroglobin (natural protein)
# chain: MERPEPELIRQSWRAVSRSPLEHGTVLFARLFALEPDLLPLFQYNCRQFSSPEDCLSSPEFLDHIRKVMLVIDAAVTNVEDLSSLEEYLASLGRKHRAVGVKLSSFSTVGESLLYMLEKCLGPAFTPATRAAWSQLYGAVVQAMSRGWDGE
# Tests used:
# [1] = target: recombinant human adult hemoglobin (αβHb), αβ dimer (human) (UniProt P69905); assay: BLI
# [2] = target: recombinant human αβ hemoglobin, 6x His tag on the N-terminus of the α subunit (αβHb dimer) (human) (UniProt P69905); assay: BLI
# [3] = target: recombinant human αβ hemoglobin (αβHb dimer) (human) (UniProt P69905); assay: BLI
molecule,measurement,setting,value
"ChuA, outer membrane TonB-dependent heme/hemoglobin transporter of E. coli CFT073 (receptor)",Kd,[1],71.5 nM
"ChuA (outer membrane heme transporter, TonB-dependent transporter) from E. coli CFT073 (receptor)",koff,[2],0.0574 s⁻¹ and 0.0449 s⁻¹ and 0.0512 s⁻¹
same,kon,[2],158000 M⁻¹ s⁻¹ and 144000 M⁻¹ s⁻¹ and 173000 M⁻¹ s⁻¹
ChuA (receptor),koff,[3],0.0574 s⁻¹ and 0.0531 s⁻¹
same,kon,[3],144000 M⁻¹ s⁻¹ and 118000 M⁻¹ s⁻¹
B1,"EC50 of the growth of E. coli ΔTBDT:ChuOP in LB liquid medium with 200 µM 2,2'-bipyridine, supplemented with serially diluted myoglobin (nonlinear regression, three parameters)",ChuA (E. coli CFT073),24200 nM
B2,"EC50 of the growth of E. coli ΔTBDT:ChuOP in LB liquid medium with 200 µM 2,2'-bipyridine, supplemented with serially diluted neuroglobin (nonlinear regression, three parameters)",ChuA (E. coli CFT073),826 nM

# — article PMC12241658
